# In the NTF2 design screens of Basanta et al. (2020):
# Assay: protease stability score; higher = more stable; yeast display proteolysis, trypsin and chymotrypsin;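 note: log10 excess protease needed over predicted unfolded state with 0 meaning unfolded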
row,Sequence,protease stability score
1,DEKQQARDLVKELRDALKHGNEKQVVKMADENAKLQVGDKKVHGRKDIDKWAKDLRDRVDHVRLEVRSIDVHNGRMKFTATFTETHNGRKKERTMTMRARIQGDKFKIQQINLS,0.247
2,DEKQVHKMARQLVKALEHNDPQKVADLVDENVRASIGDTEYHGREHVKKAIKQMVDSIDHMRVRTVTAHNGTIDIDFQVVVNGRTERYQMRAEVHNGRIQSLRVDKR,2.02
3,DEKQVLELIRDVMKHVQNGNQEEVKKHGKPSVEVILFNERYTGPEALVRLAEFAQKLGAQFEYKETRHEGNKVKTKVEVTFGGTTVRYEVEVEAEGGKVVKWEVRASDEFDERVKKS,1.09
4,DEKQVVKVAKRVVQAVFEGDEELMKKMGKEDVEVEVGDTKYKGVDQAVDLVRKYKEFGLEFELKKYEVKGDTVTFHAKLYAGDKTIDVTVHYRADDGKMDETKVELSEEADKAFKQH,1.1
5,DEKRAHDFAQQVIRVIQDGDPREAQKLADENVRVEYGDRTVHGKEQISNFAQEFRTRVDHVKIDTWHAQGDKIVIHLKVNVNGREKRVVVVVEVHNGRVKSLVYKDG,1.24
6,DEKRALEVIKRYAEYLKRGNADEARKMGKEGVEAEFGDTHVHGADQVKEYVKKVKDVGAHVEYKEVEYKGDTVTVKTEVTRGDAKVTFEVKYQAKGDKVVNLEMKFNKEQMKEFKKS,-0.015
7,DEKRARKLLEKAFELVQKGNKDTMRKIGKPNVKYKYVDQEYEGPEAMKFVIDVVKKIGAEVKKQEVEVKGDTAKATFQYRQGDKTVETRVEVKYEGDKLKEVRVEATDEVKKLVHQG,0.009
8,DEKREKDVAENFNTILENNDPDNLRKQAPPEAHAVIGDTRYRGMETFVTIMKKMWDEVDHFTVDDYQVQNGRVTIQAHVQVNGRQVTLHLEMIIDNGHITHIRMDPRQYRQFEG,-0.434
9,DEKREQELAKKFADVFQRNNESELRKMIDENARYEIGDKTYRGTKAVKHVMKKVHDRADHVQVENFKAHNGTMELYLRYHVNGQDVRIIIELELRNGKVQHARYDVTSEEDRHNVEN,0.041
10,DEKRFTELAEKAFKIIMNGNEEEARKMGKPNVEYKYGDKEFEGEEAMQYAVQLVIKVGAEAKVRRMEVRGDTMRADFQYTLGDKTVQTTAQVQYEGDYAKKAENELSDEAKKIMHQG,0.434
11,DEKRLKELLEHVFKQVMNGNEEEVLKHGKPDVQYEYLTKRYEGEDAMRVVIKKIKRIGAEVQVKRREVHGNTMRADFDYHKGDQTVRTTAEAKYEGDQVKEFRVKVTEEHKQVIHQG,0.104
12,DEKRLKEVAKKVFEAVQKGDTEKLKKLGKEDGKFQFLDHRYKGKEEYARIMQKLKKHGVQFEIKKYQVKDNKVRMETVVTYGDQTFTVEAEARYEGGQLDEARVEMTEEAKERLKQG,-0.084
13,DEKRLREIATRIVDALKTNNPEDFQKQLDEDAEVSIGDKTVRGQKQIVKMMDEFNSRVDEIDFKSYTAEGNQVVVNAVFNHNGRQQHLHFVFVFHNGKAKTVKAESS,1.12
14,DEKRLTELLEVMKHGDFDRLANLMDKDVRIEYGDKSVRGREQAQHLMEKQKKRADHVEWKEYHFQGDTVSVRLVVRINGKEVEYHQTYRVNNGKITDMEQRARDEDDERQLRRVEG,-0.093
15,DEKRMKELMDKVFRLVMEGNEEDVVKMGAPDVKYKYADHEYKGPEVMKEVAVMVRRLGAEVRVKRKEVHGDTAQADFDYRKGDTTVRTTARVKYEGDKVKRAEVEVSDEVKKIVHQG,0.144
16,DEKRMLKVAKEVAEMVRRGDADRVHKYLKEGGRAEVGDTEINGPDQMKEYVKKVKDQGAHNEYKETEYKGDTMTIKTQAHLGDATVDFEVHYQVKGDKVERVEVRFNKEQLKKFKDS,-0.087
17,DEKRMVELMRKIFKTIINGNEDEVKKILPPHGEYHYIDKKFEGKEVAEYIIKLVKKMGAEAKVKEQEVKGDTAKATFQYRKGDKTVQTKAEVKYEGDKMKKARVENTDEVRKVVHQG,-0.024
18,DEKRQAKEYVKHFDEVIETNDPDQLNELMDKDVRLDIGETKVSGRDDAKKWAKELVDQIDHVRVNVRKVDVQGDTIKVEVDIQIQYNGRHEQRVLHFTAVLSNGRAKIKRFTVE,0.559
19,DEKRQQDQAKKIADALSTGDEDQFLQNMDPNAHVRVGDKTFHGRDDVRRMLREVNEHVDEINVHDVSVHNGQVDAVLVWEHNGRKQRKKVVVDRHNGRVHSVEIRDQ,-0.189
20,DEKRVEELARKLFKYIINGDQEKVKTLLKPNVEYNYIDTQYKGPDAAVTMAQEVKKVGAEVKVREEKVEGNTAEVVFQYRVGDNTMQTKAQVHYEGDKVKEVRVELSEEVKKVVHQG,0.124
21,DEKRVKELADKIFKDIINGNEEVVRKLGDPDVRYEYLDKKFRGEEAMIFIVQVVKRVGAEVKVERKEVRGDTAKADFRYRKGDTEVKTTAEVIYEGDKLKEARVHLTDEVKKVMTQG,-0.006
22,DEKRVKEMVKKIFEVIKKGDEDKIVKQLMPNVEYHYIDQKFEGEDAARHIVKIVKHIGAEDREKKHEVNGDTMTVVFVYHNGDKTIQTKATVTYEGDVVKKAEVRLDDEVKKLARKG,0.088
23,DEKRVRRFAHKFIEVIERGDEHELRNLMDPDASMRVGDRTIHGRDEAARTIMKFLKRVDNLEVKSYDAQGDKVDIKVRASHDGKEHRITFDVKVHNGHIRHVTVKID,2.64
24,DEKRYEELVKKAFDVIRNGNEEEMRKLGKPDVEYKYADKEFEGEEAMQTMVQVVKRIGAKVEIQHEEVHGDTAHAVFVYKKGNRTAQTTVKVVYEGDKLKKAEVKMTDEVRKVLHDG,-0.024
25,DEKRYKELADKAFKYIVNGNEEQAIKMLKPNVRYEYVDKEMKGEEAAKEIVQLMQKVGAKVETQEKEVHGDTMRAVFQYHDGDTTVQTTAEVVYKGDKVEKVRVEISEEVKKIVERG,-0.265

row,Sequence,protease stability score
1,DEKRYKELFETVFKMVINGDEEDVKKIINPNGKYQYGDKEFEGPEVAHELVRVVKEMGAEVKETRYEVNGDTARADFKYINGDQEVTTTAEAVYKGDKMEEARVHISEEVKKVLHQG,-0.143
2,DEKRYTEIAEKVFKYARNGNEEEMRKDGMPDLKYKYIDKEYEGEDAMRFVVELVKKIGAEDRQEKQEVKGNTAEAVFVYHNGDETVTTKAQVHYEGDKVKEVRVELTDEVKKVIKKG,0.135
3,DEKTAASQFFRDLRHALRQGDETRIMELADENVEFQIGDKRWHGRESAMELARHVHNRADTVELRIEDLKIDNGQMNADVLITFNHNGRNETQRVNVRARIHNGHVVLVEVHQK,1.62
4,DEKTAQDTAKEIVKYWEQGDFEKLNKNADKNVRIRYGDKDYSGRDNFQELQKKFREHVDHVEVHSVDVEGDKIRVVIMFVVNGKHMVMEFVVDYHNGHLKSVSVDARNPDQKKRADK,0.46
5,DEKTERDQARKLIHILEEGDEEKMANLMDENAHIQVGDTTYSGREDVRRFMQSWSERVDRFSVHSITAHNGKIDIDVEFVVNGRKVQMDLRFHVENGRIKTDKFQFRDEDKFKDMQS,0.295
6,DEKTKAKQLADTLKRLAESGDFVRIAQLFDENARLNYGDKTVHGREQAEDQAKKIHDQIDHMELELKSVSVNENSVQISMEVVWHHNGNHHRFEVVVRIDVDENKNRARNADYQ,0.921
7,DEKTLKELADHLIRAIETGNEHQFQKMADPNVKAQYGDSKVRGREDLAEYFKTLVDRADHIQFDHWDAQGNKVTMHFVLRVNGVDVRIVVFIHVTNGKIKHVRVHVTDPQEFRRMQG,0.515
8,DEKTVKEVVDKWIKALENNDEEKLQKMLKPNGEAHYADTTYKGKDQIVKYVVEFMRRGVELQVKEQEVKGGRAEYQVDATLGGDTVTLRVVIYVKDGVVDKVEFRDDEKVQKMMKKG,0.105
9,DEKVHKIFEHYMTAVNRNNPDRAMRQVDPNAHVEVGDRQISGRENLRETVEKLNKHARINYRDFDAELHGDKVNVDLDIRMEYNGKPYSDHVIIIFRAQGDKIKHMTNDIDPDVEHHFEQ,0.081
10,DEKVKELFKRLLRALHTGDEEQARRLVDPNARIQVGDQRYHGMDEALRQMLHNMQDIEVSQRYIEVDVSGDRVHYRAEVEKTHNGKPEREQYSATVHAHNGKVVQVEMHTDK,0.069
11,DEKVLKALHDVFRAQEHGDERRAMRNLDPNVKIDVGDEQYHGRESWARRIVQERRDMKVEYHKIDFDDRGDKAKITARYEFTENGDPRHVTIDMEAKATNGKVTTMEQRDDG,-0.103
12,DEKVQDLVQKFVKWLAQGDHKKLADLLDPNARLHIGEFNVHGREQLREAVTRLQTRMHLSVNRVDASASNGKIKASAKFTVKHNGQPDKKHLNFSAVARGEKVKHMEASDDQ,-0.287
13,DENAERVLREIVKALEQGDPDRWKQNVDPNVKFRVGDKDVHGREEIVKTLSSLHDQIRFHVKFEHMDNQGDKIRADARVHQNVDGRPLSSSVVVRLTVHNGRVQEMRMNMDEHYVRDEQK,0.068
14,DENAQKLAREFMHAVREGNPEEIKKQVDPNAKMVVGDKEITGREEMSRQRERELREIEIDYRSVRVDVSGDKAKLDIKFERNDNGKPQQQQQTMTFVHQGDKIKHLVIKQHS,-0.373
15,DENAVRVVKELWKALNHGNPDRVQQLADKDARVQVGDKDVHGREKMAKLVDTLKKEIRMDIKVHSISASNGRAKIDFKADEENNGKPQTYEATANVTIHNGKVVSMRVNKDQ,-0.428
16,DENDAKELRHFIEVMVRGDPSKLMQLADKDASFHIGEKQVHGREQISSEAEQRNREIKYEIKDLKVTVHGDKARVEAEMVKNHNGKPEHYRYVVTASLRNGKIKEVTVNKRQ,0.875
17,DENDTARKIIKTLLDIMREGDEDKLRDQMDPNVRADVGDKTVHGREHAAKFLAHIVKRADHISITLKSLHNHNGRLRMQAEVRIVHNGRTERVTLEMVFRDHNGKLLIERMKYG,2.51
18,DENDVKRVLDKLKDNNWEDLVKLMDKDARVEIGDHTIHGRENVHQWMSTIEKQVDHFQIDTMTVKGDTLDANVRMVVNGRKIVFRLKVSLKNGRITRIRFQATDEEQHQQIRQMLR,1.29
19,DENELELYKEVVEAENTGDPDEMKELVDPNVNVQVGDTTLHGMSELVKDAKRRRKQMRVDIKVTSMKAHNGRLEIRLEVVFEVNGRPTSDTITVTVHAHNGKVKEFNYHMDPDREKRQRS,1.03
20,DENELLKTFMDIFRRAIKTGDEKLLRTMMDKDVKARVGDKDVHGREEADKEFKKIWDHADHVDIKVKEVTINGDKAHVTMDAKFVVDGKSQKVNIHVKAEVKNGRLKAKHITMG,2.03
21,DENEMVQLARKLARVLETNDSDKMREMIPPDASIEIGDRRLHGRESVEHLMKDMHKRIDHLTVDSVNVDNGRVHISARAKHNGRTRRVQFYALIHNGRIHVISFRTK,1.34
22,DENENEEFARKFLENLRTGDPDKVMELVDPNAHVTIGDKEIKGRDQVKRWVEEHKRRADHLDVRDMSVDGEKITARIVVNINGENKYQKVEISIHNGHMTHMSVHDE,1.12
23,DENETAKDILKELVDILKNGDEDSFARMFDENARITVGDKTYTGRDEVRKYASQIHRRVDHIDVKLKSVTTNNGRIEVSARFVFQVDGKEDDRIFRLVVRKKGDKWVIERQSLE,1.64
24,DENHKVRELVDRFKEAYDSNDPDQYQNQFDKDATVTVGDKVFHGDEQAKQMAEDIMRNVDSFSISLKRVRVRGDKVRVSFKVVNNRNGRHKTIHVTAVFVFDNGRLRAKSWHFQ,0.73
25,DENHLKEVAEEYNKVLNNGDPDKHVEQVDKDVDVKVGDKTYHGREDDKKWMEHFVERVDHLEVKRVEVRGDKVRIDMVVNVNGDNVKMQVNINLHNGRVQEVSVNPDQLEKFKQ,0.22
